From patent publication US20060142192A1 (ZymoGenetics, published 2006)

Legend:
Test in all cases: flow cytometry, biotinylated IL-17C (1 ug/ml) + streptavidin-PE on stably transfected BHK cells
[1] = target: T1, human ZcytoR21x6 (human, UniProt Q8NFR9 24-667)
T1 construct: also called hcytor21x6
T1 sequence: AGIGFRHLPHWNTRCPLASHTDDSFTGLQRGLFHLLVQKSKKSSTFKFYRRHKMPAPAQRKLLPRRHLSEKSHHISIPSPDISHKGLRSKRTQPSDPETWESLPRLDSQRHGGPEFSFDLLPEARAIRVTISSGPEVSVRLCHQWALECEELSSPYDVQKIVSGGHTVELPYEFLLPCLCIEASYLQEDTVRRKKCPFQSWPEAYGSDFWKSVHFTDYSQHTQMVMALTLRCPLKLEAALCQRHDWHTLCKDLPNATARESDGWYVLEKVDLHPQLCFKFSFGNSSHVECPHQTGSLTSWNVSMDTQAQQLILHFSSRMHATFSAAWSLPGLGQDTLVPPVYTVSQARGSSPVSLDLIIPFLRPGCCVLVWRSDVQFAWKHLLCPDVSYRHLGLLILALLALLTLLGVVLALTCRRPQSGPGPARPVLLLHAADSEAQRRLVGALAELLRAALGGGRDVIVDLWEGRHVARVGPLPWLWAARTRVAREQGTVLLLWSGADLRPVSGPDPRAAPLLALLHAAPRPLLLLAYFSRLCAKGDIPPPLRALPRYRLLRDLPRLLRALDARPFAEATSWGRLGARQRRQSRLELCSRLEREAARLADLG
Method: (§1) BHK cells stably transfected with human and mouse ZcytoR21 splice variants were plated and grown to confluency in T-75 flasks. Cells were lifted off using a non-protease reagent such as Versene (Invitrogen 15040-066), pelleted, and resuspended in a staining reagent (HBSS+1% BSA+0.1% NaAzide+10 mM HEPES) at 2×10e7 cells/ml and aliquoted to a 96-well Costar plate. IL-17C that has been labeled with biotin was independently added to cells at a concentration of 1 ug/ml. The cell/ligand mixture can be incubated for 1 hr at 4 degrees. The wells were washed 1× in staining reagent, and incubated in a secondary reagent containing staining reagent plus Streptavidin-PE (BD Pharmingen 554061) at a 1:100 ratio. The wells were incubated at 4° C. in the dark for 1 hr, followed by a 2× wash in staining media. The cells were then resuspended in a 1:1 mixture of staining media and Cytofix (BD Bioscience 554655) and incubated 10 minutes at RT. The cells were analysed by Flow Cytometry and by gating on the PE positive events for cells that bound IL-17C.

[2] = target: T2, human ZcytoR21x13 (human, UniProt Q8NFR9 24-667)
T2 construct: also called hcytor21x13
T2 sequence: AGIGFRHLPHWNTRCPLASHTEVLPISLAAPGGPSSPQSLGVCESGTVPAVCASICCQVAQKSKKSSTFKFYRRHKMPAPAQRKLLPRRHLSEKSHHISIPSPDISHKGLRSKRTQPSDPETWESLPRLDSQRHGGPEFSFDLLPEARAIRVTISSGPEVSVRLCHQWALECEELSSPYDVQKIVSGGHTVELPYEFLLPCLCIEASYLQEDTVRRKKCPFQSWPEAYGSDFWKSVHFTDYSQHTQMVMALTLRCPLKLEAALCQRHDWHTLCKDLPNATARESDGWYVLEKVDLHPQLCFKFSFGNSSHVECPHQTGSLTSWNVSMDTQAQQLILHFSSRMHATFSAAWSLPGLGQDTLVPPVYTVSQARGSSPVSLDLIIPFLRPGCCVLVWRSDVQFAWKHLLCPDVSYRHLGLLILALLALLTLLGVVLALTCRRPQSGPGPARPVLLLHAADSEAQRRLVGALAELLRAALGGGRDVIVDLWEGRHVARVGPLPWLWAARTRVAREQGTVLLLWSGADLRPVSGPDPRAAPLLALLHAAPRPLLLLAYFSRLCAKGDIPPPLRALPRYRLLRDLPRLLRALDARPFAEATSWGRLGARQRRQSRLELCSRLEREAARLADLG
Method: as §1

[3] = target: T3, murine ZcytoR21x6 (mouse, UniProt Q8BH06 24-637)
T3 construct: also called mouse ZcytoR21x6; mcytor21x6
T3 sequence: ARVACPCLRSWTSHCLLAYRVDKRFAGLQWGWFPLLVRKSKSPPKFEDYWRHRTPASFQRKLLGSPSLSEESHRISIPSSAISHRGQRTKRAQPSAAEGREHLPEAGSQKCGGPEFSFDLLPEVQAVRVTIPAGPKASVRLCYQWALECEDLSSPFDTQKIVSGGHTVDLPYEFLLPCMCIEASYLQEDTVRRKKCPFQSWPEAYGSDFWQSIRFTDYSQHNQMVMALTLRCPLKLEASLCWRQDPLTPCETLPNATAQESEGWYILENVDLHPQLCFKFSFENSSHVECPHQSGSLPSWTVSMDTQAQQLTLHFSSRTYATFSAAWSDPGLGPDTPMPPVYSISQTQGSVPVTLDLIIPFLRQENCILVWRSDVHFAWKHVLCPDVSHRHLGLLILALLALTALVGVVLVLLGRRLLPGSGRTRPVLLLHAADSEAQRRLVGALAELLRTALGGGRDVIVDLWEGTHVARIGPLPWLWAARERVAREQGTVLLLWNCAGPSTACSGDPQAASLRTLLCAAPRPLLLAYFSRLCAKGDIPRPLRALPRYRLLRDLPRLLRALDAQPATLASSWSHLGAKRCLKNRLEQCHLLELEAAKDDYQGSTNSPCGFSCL
Method: as §1

Measured: binding result

B1: human IL-17C (ligand)
chain: HHDPSLRGHPHSHGTPHCYSAEELPLGQAPPHLLARGAKWGQALPVALVSSLEAASHRGRHERPSATTQCPVLRPEEVLEADTHQRSISPWRYRVDTDEDRYPQKLAFAECLCRGCIDARTGRETAALNSVRLLQSLLVLRRRPCSRDGSGLPTPGAFAFHTEFIHVPVGCTCVLPRSV
modifications: biotin label in the binding assays (sites not given); unlabelled in the signalling assays
notes: it is the last residue of the open reading frame as I know it; Recombinant forms made carried a C-terminal Glu-Glu tag (BHK) or His tag (293F); also called biotinylated human IL-17C; human IL-17C (A903G)
binds: all assays above
